Residue numbers refer to the chain shown, from its start. Non-standard residues stand in square brackets, D forms with d. Groups on a side chain read outwards from the residue. No end group written: not given here. *: point of attachment. 2OEGgEgE‑C18 diacid = O=C(O)CCCCCCCCCCCCCCCCC(=O)N[C@@H](CCC(=O)N[C@@H](CCC(=O)NCCOCCOCC(=O)NCCOCCOCC(=O)*)C(=O)O)C(=O)O; C20 diacid = O=C(O)CCCCCCCCCCCCCCCCCCC(=O)*; C18 diacid = O=C(O)CCCCCCCCCCCCCCCCC(=O)*; NMeY = CN[C@@H](Cc1ccc(O)cc1)C(=O)O; Aib = CC(C)(N)C(=O)O
B1: Compound No. 74 (peptide)
peptide: [NMeY][Aib]EGTFISDYSI[Aib]LDR[Aib]K([2OEGgEgE-C18 diacid])Q[Aib]NFVNWLLAQRG-OH
B2: Compound No. 58 (peptide)
peptide: [NMeY][Aib]EGTFISDYSIALDR[Aib]AQ[Aib]DFVNWLLAK(2OEGgEgE‑C18 diacid)RPSSGAPPPS-NH2
B3: Compound No. 60 (peptide)
peptide: YXEGTFISDYSIAXDSXAQXDFVNWLLAQSG
modifications: N-methyl Tyr 1; Aib at 2,17,20; Lys(G5-C18 diacid) at 14; C-terminal OH
B4: Compound No. 77 (peptide)
peptide: B3 peptide with A13X, X14L, S30K
modifications: N-methyl Tyr 1; Aib at 2,13,20; Lys(G5-C18 diacid) at 17; C-terminal OH
B5: Compound No. 78 (peptide)
peptide: B3 peptide with X14L, S30K
modifications: N-methyl Tyr 1; Aib at 2,20; Lys(G5-C18 diacid) at 17; C-terminal OH
B6: Compound No. 64 (peptide)
peptide: B3 peptide with A13X, X14L, S30R
modifications: N-methyl Tyr 1; Aib at 2,13,20; Lys(G6-C18 diacid) at 17; C-terminal OH
B7: Compound No. 76 (peptide)
peptide: B3 peptide with S16K, S30K
modifications: N-methyl Tyr 1; Aib at 2,17,20; Lys(G5-C18 diacid) at 14; C-terminal OH
B8: Compound No. 82 (peptide)
peptide: B3 peptide with S16R, S30Q
modifications: N-methyl Tyr 1; Aib at 2,17,20; Lys(G5-C18 diacid) at 14; C-terminal OH
B9: Compound No. 63 (peptide)
peptide: B3 peptide with S16R, S30R
modifications: N-methyl Tyr 1; Aib at 2,17,20; Lys(G5-C18 diacid) at 14; C-terminal OH
B10: Compound No. 69 (peptide)
peptide: [NMeY][Aib]EGTFISDYSI[Aib]LDR[Aib]AQ[Aib]NFVNWLLAQK([2OEGgEgE-C20 diacid])PSSGAPPPS-NH2
B11: Compound No. 73 (peptide)
peptide: [NMeY][Aib]EGTFISDYSI[Aib]LDR[Aib]K([2OEGgEgE-C18 diacid])Q[Aib]DFVNWLLAQRG-OH
B12: Compound No. 70 (peptide)
peptide: YXEGTFISDYSIAXDRXAQXDFVNWLLAQRPSSG
modifications: N-methyl Tyr 1; Aib at 2,17,20; Lys(G5-C18 diacid) at 14; C-terminal OH

Each binder was assayed against T1, full-length human GIPR with an N-terminal FLAG tag (human, UniProt P48546 22-466) (assay: cell-based or functional assay).
T1 sequence (looked up): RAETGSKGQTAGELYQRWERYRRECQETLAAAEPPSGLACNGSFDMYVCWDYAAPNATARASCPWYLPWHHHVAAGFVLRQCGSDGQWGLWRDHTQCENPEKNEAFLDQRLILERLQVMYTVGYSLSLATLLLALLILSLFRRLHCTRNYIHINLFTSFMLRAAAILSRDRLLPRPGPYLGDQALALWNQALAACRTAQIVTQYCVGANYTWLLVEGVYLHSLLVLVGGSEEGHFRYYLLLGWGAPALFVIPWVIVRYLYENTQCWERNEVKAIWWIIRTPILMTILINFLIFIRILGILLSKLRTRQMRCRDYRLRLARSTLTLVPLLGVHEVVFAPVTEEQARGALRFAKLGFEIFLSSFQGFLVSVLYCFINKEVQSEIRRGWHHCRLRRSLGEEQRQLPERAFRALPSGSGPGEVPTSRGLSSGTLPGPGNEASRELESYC

| Binder | Human GIPR cAMP EC50, HEK293T |
| --- | --- |
| B1 | 0.0005 nM |
| B2 | 0.0004 nM |
| B3 | 0.0003 nM |
| B4 | 0.0003 nM |
| B5 | 0.0003 nM |
| B6 | 0.0002 nM |
| B7 | 0.0006 nM |
| B8 | 0.0003 nM |
| B9 | 0.0002 nM |
| B10 | 0.0008 nM |
| B11 | 0.0003 nM |
| B12 | 0.0002 nM |

The binders below were run against full-length human GLP-1R with an N-terminal FLAG tag (human, UniProt P43220 24-463) (assay: cell-based or functional assay).

| Binder | Human GLP1R cAMP EC50, HEK293T |
| --- | --- |
| B1 | 468 nM |
| B2 | > 1000 nM |
| B3 | 100 nM |
| B4 | 17 nM |
| B5 | 26.9 nM |
| B6 | 110 nM |
| B7 | 28.8 nM |
| B8 | 17.4 nM |
| B9 | 75.9 nM |
| B10 | 102 nM |
| B11 | 363 nM |
| B12 | 43.7 nM |

— patent US20230143604A1, “QW DOSING OF GIP RECEPTOR AGONIST PEPTIDE COMPOUNDS AND USES THEREOF” (TAKEDA PHARMACEUTICAL COMPANY LIMITED, priority 2020, published 2023)
